Data taken from PMC9482650, “Quantitative fragmentomics allow affinity mapping of interactomes” (Nature Communications, 2022).

What was measured:
Experiment in all cases: holdup assay
Design in all cases: key: below the threshold = too weak to quantify, mostly under pKd 3.1 to 4
[1] = target: T1, LNX2_2, Q8N448
T1 sequence (Q8N448 334-432, limits assumed, looked up): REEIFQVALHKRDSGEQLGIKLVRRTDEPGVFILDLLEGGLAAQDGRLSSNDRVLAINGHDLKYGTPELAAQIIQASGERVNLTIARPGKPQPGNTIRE

[2] = target: TJP2_1, Q9UDY2
TJP2_1, Q9UDY2, sequence (Q9UDY2 24-128): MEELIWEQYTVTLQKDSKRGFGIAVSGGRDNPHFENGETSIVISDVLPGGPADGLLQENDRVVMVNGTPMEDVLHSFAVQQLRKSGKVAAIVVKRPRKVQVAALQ

[3] = target: DLG1_3, Q12959
DLG1_3, Q12959, sequence (Q12959 457-571): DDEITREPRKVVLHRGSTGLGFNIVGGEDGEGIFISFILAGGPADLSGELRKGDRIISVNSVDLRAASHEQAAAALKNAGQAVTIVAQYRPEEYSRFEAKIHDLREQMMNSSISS

[4] = target: TJP1_3, Q07157
TJP1_3, Q07157, sequence (Q07157 416-512): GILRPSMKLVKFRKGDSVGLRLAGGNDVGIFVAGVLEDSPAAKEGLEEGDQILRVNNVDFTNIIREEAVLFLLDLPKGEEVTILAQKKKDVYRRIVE

[5] = target: NHERF4_1, Q86UT5-2
NHERF4_1, Q86UT5-2, sequence (Q86UT5 other isoform, or with tags, fused parts or gaps): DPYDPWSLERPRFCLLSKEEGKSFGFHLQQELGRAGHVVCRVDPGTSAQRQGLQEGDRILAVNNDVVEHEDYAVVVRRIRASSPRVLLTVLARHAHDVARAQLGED

[6] = target: NOS1, P29475
NOS1, P29475, sequence (P29475 9-101): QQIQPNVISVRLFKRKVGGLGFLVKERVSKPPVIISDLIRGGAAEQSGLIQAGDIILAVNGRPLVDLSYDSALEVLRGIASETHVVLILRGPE

[7] = target: SCRIB_3, Q14160
SCRIB_3, Q14160, sequence (Q14160 999-1103): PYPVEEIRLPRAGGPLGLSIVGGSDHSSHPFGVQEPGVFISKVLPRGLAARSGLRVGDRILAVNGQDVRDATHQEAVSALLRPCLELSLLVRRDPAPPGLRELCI

[8] = target: DLG1_2, Q12959
DLG1_2, Q12959, sequence (Q12959 314-412): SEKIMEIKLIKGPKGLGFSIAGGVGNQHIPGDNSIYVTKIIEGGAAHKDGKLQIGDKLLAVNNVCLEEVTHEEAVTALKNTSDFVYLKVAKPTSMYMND

[9] = target: FRMPD3, Q5JV73
FRMPD3, Q5JV73, sequence (Q5JV73 12-100): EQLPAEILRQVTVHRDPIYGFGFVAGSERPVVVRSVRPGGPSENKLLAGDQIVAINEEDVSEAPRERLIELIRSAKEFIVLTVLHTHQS

[10] = target: T2, DLG3_3, Q92796
T2 sequence (Q92796 374-475, limits assumed, looked up): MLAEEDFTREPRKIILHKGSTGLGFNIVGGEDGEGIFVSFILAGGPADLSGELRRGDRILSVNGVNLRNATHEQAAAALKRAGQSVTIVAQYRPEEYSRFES

[11] = target: PTPN3, P26045
PTPN3, P26045, sequence (P26045 505-587): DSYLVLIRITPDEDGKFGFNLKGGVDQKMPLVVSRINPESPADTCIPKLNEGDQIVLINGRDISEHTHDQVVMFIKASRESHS

[12] = target: Inadl_4, Q8NI35
Inadl_4, Q8NI35, sequence (Q8NI35 547-651): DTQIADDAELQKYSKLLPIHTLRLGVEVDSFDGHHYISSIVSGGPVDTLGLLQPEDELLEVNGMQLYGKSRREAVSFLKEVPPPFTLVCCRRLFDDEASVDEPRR

[13] = target: AHNAK1, Q09666
AHNAK1, Q09666, sequence (Q09666 4-100): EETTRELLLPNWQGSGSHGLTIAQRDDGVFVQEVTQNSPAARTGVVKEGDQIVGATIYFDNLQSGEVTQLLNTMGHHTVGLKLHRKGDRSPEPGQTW

[14] = target: T3, HTRA3, P83110
T3 sequence (P83110 354-453, limits assumed, looked up): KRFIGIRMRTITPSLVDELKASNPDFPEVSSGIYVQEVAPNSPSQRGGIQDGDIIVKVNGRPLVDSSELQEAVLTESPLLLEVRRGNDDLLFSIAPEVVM

[15] = target: PDLIM1, O00151
PDLIM1, O00151, sequence (O00151 1-87): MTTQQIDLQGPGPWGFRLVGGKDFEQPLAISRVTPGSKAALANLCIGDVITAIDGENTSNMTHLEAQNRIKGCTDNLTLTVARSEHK

[16] = target: Inadl_8, Q8NI35
Inadl_8, Q8NI35, sequence (Q8NI35 1425-1530): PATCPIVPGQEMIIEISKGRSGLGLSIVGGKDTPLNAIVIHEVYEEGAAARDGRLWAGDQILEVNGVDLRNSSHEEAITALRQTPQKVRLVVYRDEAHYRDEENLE

[17] = target: T4, DFNB31_2, Q9P202
T4 sequence (Q9P202 274-371, limits assumed, looked up): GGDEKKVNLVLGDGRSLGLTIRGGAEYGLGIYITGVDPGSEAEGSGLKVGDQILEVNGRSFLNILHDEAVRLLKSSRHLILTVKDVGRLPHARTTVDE

[18] = target: T5, APBA1_2, Q02410
T5 sequence (Q02410 742-832, limits assumed, looked up): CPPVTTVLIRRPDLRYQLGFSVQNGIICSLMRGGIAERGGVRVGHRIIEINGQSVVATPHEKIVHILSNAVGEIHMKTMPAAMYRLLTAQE

[19] = target: GRIP2_3, Q9C0E4
GRIP2_3, Q9C0E4, sequence (Q9C0E4 238-339): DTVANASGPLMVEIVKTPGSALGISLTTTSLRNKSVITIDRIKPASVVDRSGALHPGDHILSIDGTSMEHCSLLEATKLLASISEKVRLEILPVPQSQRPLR

[20] = target: T6, FRMPD1, Q5SYB0
T6 sequence (Q5SYB0 52-145, limits assumed, looked up): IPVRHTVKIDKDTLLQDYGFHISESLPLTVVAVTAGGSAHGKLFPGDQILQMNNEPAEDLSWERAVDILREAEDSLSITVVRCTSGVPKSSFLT

[21] = target: T7, APBA1_1, Q02410
T7 sequence (Q02410 651-752, limits assumed, looked up): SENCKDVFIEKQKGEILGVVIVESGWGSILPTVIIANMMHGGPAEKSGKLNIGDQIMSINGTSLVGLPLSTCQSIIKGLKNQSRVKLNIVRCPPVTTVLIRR

[22] = target: T8, DVL3, Q92997
T8 sequence (Q92997 244-331, limits assumed, looked up): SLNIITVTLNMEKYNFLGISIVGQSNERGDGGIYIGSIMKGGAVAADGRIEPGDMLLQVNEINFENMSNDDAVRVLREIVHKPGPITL

[23] = target: Inadl_10, Q8NI35
Inadl_10, Q8NI35, sequence (Q8NI35 1673-1763): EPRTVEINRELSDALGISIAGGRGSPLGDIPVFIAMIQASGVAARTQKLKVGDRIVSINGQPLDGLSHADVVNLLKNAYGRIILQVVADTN

[24] = target: GOPC, Q9HD26
[25] = target: SCRIB_1, Q14160
SCRIB_1, Q14160, sequence (Q14160 718-814): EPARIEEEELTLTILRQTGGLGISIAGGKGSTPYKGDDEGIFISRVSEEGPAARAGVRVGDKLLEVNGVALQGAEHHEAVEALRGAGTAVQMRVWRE

[26] = target: T9, GRIP1_5, Q9Y3R0
T9 sequence (Q9Y3R0 568-668, limits assumed, looked up): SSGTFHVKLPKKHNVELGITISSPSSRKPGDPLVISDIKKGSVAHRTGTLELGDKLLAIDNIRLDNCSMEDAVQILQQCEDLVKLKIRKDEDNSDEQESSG

[27] = target: Inadl_5, Q8NI35
Inadl_5, Q8NI35, sequence (Q8NI35 673-780): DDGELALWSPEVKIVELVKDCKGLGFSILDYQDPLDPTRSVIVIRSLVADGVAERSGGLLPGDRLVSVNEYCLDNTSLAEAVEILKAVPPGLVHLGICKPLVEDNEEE

[28] = target: Inadl_9, Q8NI35
Inadl_9, Q8NI35, sequence (Q8NI35 1530-1615): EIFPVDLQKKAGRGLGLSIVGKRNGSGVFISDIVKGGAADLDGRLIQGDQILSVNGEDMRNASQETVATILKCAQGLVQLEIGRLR

[29] = target: PDZRN4_1, Q6ZMN7
PDZRN4_1, Q6ZMN7, sequence (Q6ZMN7 213-318): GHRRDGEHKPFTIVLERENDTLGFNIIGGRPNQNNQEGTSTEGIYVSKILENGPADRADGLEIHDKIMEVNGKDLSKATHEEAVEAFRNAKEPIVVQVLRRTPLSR

[30] = plain residues with an end cap or a label only (N-terminal biotin on a linker: ado-ado)
[31] = plain residues with an end cap or a label only (N-terminal biotin on a linker: ahx)

Measured: pKd

SVTSERETNI [SLC16A7, O60669]
4.42: [8]; [30]
4.1: [25]; [30]
below the threshold: [1]; [30] | [2]; [30] | [3]; [30] | [4]; [30] | [5]; [30] | [6]; [30] | [9]; [30] | [10]; [30] | [12]; [30] | [13]; [30] | [14]; [30] | [15]; [30] | [16]; [30] | [17]; [30] | [18]; [30] | [19]; [30] | [20]; [30] | [21]; [30] | [22]; [30] | [23]; [30] | [24]; [30] | [26]; [30] | [27]; [30] | [28]; [30] | [29]; [30]
4.93: [7]; [30]
4.97: [11]; [30]

LPAVCYDIDI [PTTG2, Q9NZH5]
3.83: [1]; [30]
3.6: [14]; [30]
4.29: [7]; [30]
below the threshold: [2]; [30] | [3]; [30] | [4]; [30] | [5]; [30] | [6]; [30] | [8]; [30] | [9]; [30] | [10]; [30] | [12]; [30] | [13]; [30] | [15]; [30] | [16]; [30] | [17]; [30] | [18]; [30] | [19]; [30] | [20]; [30] | [21]; [30] | [22]; [30] | [23]; [30] | [24]; [30] | [25]; [30] | [26]; [30] | [27]; [30] | [28]; [30] | [29]; [30]
4.22: [11]; [30]

QNTDDVQTSF [ACE2, Q9BYF1]
4.45: [11]; [31]
3.78: [9]; [31]
3.65: [5]; [31]
3.54: [8]; [31]
below the threshold: [1]; [31] | [2]; [31] | [3]; [31] | [4]; [31] | [6]; [31] | [7]; [31] | [10]; [31] | [12]; [31] | [13]; [31] | [14]; [31] | [15]; [31] | [16]; [31] | [17]; [31] | [18]; [31] | [19]; [31] | [20]; [31] | [21]; [31] | [22]; [31] | [23]; [31] | [24]; [31] | [25]; [31] | [26]; [31] | [27]; [31] | [28]; [31] | [29]; [31]

NNNVVKVDSV [MTNR1A, P48039]
4.22: [16]; [30]
3.86: [6]; [30]
3.92: [18]; [30]
3.51: [5]; [30]
below the threshold: [1]; [30] | [2]; [30] | [3]; [30] | [4]; [30] | [7]; [30] | [8]; [30] | [9]; [30] | [10]; [30] | [11]; [30] | [12]; [30] | [13]; [30] | [14]; [30] | [15]; [30] | [17]; [30] | [19]; [30] | [20]; [30] | [21]; [30] | [22]; [30] | [23]; [30] | [24]; [30] | [25]; [30] | [26]; [30] | [27]; [30] | [28]; [30] | [29]; [30]

GEDRSPPTAL [MKNK1, Q9BUB5]
4.34: [5]; [30] | [18]; [30]
4.57: [7]; [30]
4.06: [11]; [30]
below the threshold: [1]; [30] | [2]; [30] | [3]; [30] | [4]; [30] | [8]; [30] | [9]; [30] | [10]; [30] | [12]; [30] | [13]; [30] | [14]; [30] | [15]; [30] | [16]; [30] | [17]; [30] | [19]; [30] | [20]; [30] | [21]; [30] | [22]; [30] | [23]; [30] | [25]; [30] | [26]; [30] | [27]; [30] | [28]; [30] | [29]; [30]
3.8: [6]; [30]
3.5: [24]; [30]
